The supplement of paper PMC10567573
± gives the standard deviation.

Experiment: protein stability index of a GFP-peptide fusion (GPS, HEK-293T) (PSI 1-6); higher = more stable
[1] = treatment: DMSO, c terminus: a fixed tail appended
[2] = treatment: MLN4924 1 uM, 8 h, c terminus: a fixed tail appended
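Note: 24-mer peptide tiles fused after GFP, lentivirally expressed, FACS-sorted into six equal bins by GFP/DsRed ratio, decoded by Illumina sequencing, PSI is the read-weighted mean bin number.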

Row | Sequence | protein stability index [1] | protein stability index [2] | protein stability index (treatment: DMSO, c terminus: native) | protein stability index (treatment: MLN4924 1 uM, 8 h, c terminus: native)
1 | TVVKSLIDNSSEIEDEDQILENSS [FAN1] | 5.202 ± 0.02 | 5.38 ± 0.13 |  | 
2 | VAAALRYLQIFATRRSCIDESQIS [FAM189A2] | 2.37 ± 0.37 | 2.41 ± 0.17 |  | 
3 | VAEITKQLPPVVPVSKPGALRRSL [TCAP] | 5.15 ± 0.15 | 5.2 ± 0.29 |  | 
4 | VAIFIMSLNKRHSSGDGNSKLKSE [MFSD9] | 2.77 ± 1.2 | 2.16 ± 0.12 |  | 
5 | VANRHGHTCLMISCYKGHREIARY [FEM1A] | 2.54 ± 0.5 | 2.41 ± 0.67 |  | 
6 | VAPATMGSARSHASSRASENQSPS [ZBTB22] | 4.96 ± 0.073 | 5.07 ± 0.14 |  | 
7 | VASLERFSTYTSDKDENKLSEASG [ZC3H15] | 5.01 ± 0.42 | 4.96 ± 0.2 |  | 
8 | VDGPDLEMLTGQERVALANRKREC [FKBP8] | 4.96 ± 0.16 | 5.14 ± 0.2 |  | 
9 | VDYTGQAKAQVRKAVQYEEKNPCR [STX11] | 4.37 ± 0.17 | 4.59 ± 0.18 |  | 
10 | VEISRRLRHSNPRADPLVCATGLL [SPNS1] | 2.22 ± 0.11 | 2.31 ± 0.32 |  | 
11 | VEKQGDTIEYLKRHNALLSKRLLA [TMEM192] | 2.87 ± 0.13 | 2.93 ± 0.27 |  | 
12 | VEQGERALERRRRALQEEERAAAQ [ZBED3] | 5.5 ± 0.2 | 5.29 ± 0.38 |  | 
13 | VESLKRFCASTRLPPTPLLLFPEE [AUP1] | 2.81 ± 0.35 | 3.01 ± 0.35 |  | 
14 | VEVDENAYRCGSGMQMAEDSKSLK [NET1] | 4.98 ± 0.26 | 4.99 ± 0.31 |  | 
15 | VFPPEVPISEKAKDLILRFCIDSE [STK38L] | 3.06 ± 0.35 | 3.32 ± 0.42 |  | 
16 | VGKSEILESLQDGAAESPYSHLGG [RAB40A] | 4.56 ± 0.27 | 4.46 ± 0.19 |  | 
17 | VGPAEPTLVNFHLKRSIPQVSPVR [CPN1] | 3.44 ± 0.17 | 3.4 ± 0.32 |  | 
18 | VGQDNGAVMEFHVSEDFNKMNFIK [WDFY1] | 3.29 ± 1.1 | 3.14 ± 0.36 |  | 
19 | VIFQREQESKNQVHRRGEYNVYST [PPP2R2B] | 3.06 ± 0.14 | 3.04 ± 0.23 |  | 
20 | VISVVSYLILALLSVTISFRIYKS [RTN3] | 3.21 ± 0.65 | 2.8 ± 0.29 |  | 
21 | VKEAPAPTPTSLEVSSPPDTTEEV [PDZK1] | 5.57 ± 0.25 | 5.49 ± 0.3 |  | 

Row | Sequence | protein stability index [1] | protein stability index [2] | protein stability index (treatment: DMSO, c terminus: native) | protein stability index (treatment: MLN4924 1 uM, 8 h, c terminus: native)
22 | VKILEPKTKEVQHNCQLHRISFCA [GULP1] | 2.33 ± 0.22 | 2.25 ± 0.17 |  | 
23 | VLAEGDNASRSLYPDAEDPQLGLD [PSD2] | 5.52 ± 0.25 | 5.34 ± 0.15 |  | 
24 | VLDLRKNSHQDFWTVWSGNRASLY [PRAME] | 2.19 ± 0.3 | 2.3 ± 0.19 |  | 
25 | VLEGPAPWGFRLQGGKDFNVPLSI [PDLIM7] | 2.31 ± 0.12 | 2.44 ± 0.17 |  | 
26 | VLLAVLPVLLLQITVGLVFLCLQY [MOG] | 3.18 ± 0.24 | 3.13 ± 0.32 |  | 
27 | VLMCGFPFLLLFLGNFFTTLRVVH [TMEM120A] | 2.95 ± 0.24 | 3.23 ± 0.48 |  | 
28 | VLRFLPAFVRMKQLIEEGYVGEPL [GFOD1] | 2.2 ± 0.25 | 2.17 ± 0.13 |  | 
29 | VLRHFHLLSDGSNTLSVSYKKGRM [SLC6A17] | 2.12 ± 0.39 | 2.61 ± 0.17 |  | 
30 | VNLYLGRSHFLWKEPATMSWLEEN [TCF25] | 2.36 ± 0.53 | 2.54 ± 0.56 |  | 
31 | VPRTEAPAPASSTPQEPWPGPTAP [PDLIM7] | 4.98 ± 0.22 | 5.2 ± 0.27 |  | 
32 | VRHNLGDTRLGQVSALPLPPAMKR [SPSB2] | 3.89 ± 0.097 | 3.98 ± 0.33 |  | 
33 | VRTAAIKAMLQLHERGLKLHQTIY [INTS4] | 2.58 ± 0.35 | 2.44 ± 0.33 |  | 
34 | VRYLNAYTGIVLLRCRKEFYQLVW [POP5] | 1.94 ± 0.34 | 2.46 ± 0.74 |  | 
35 | VSLDISPDLPFQIKPSENHYSLLT [PCDHGC5] | 2.22 ± 0.31 | 2.46 ± 0.17 |  | 
36 | VSRRTSEACMTHLHYKWIPVEDSH [DUSP5] | 3.04 ± 0.34 | 3.08 ± 0.21 |  | 
37 | VSVRVQPRGRAHLLPNPYQQDFLG [C22orf15] | 2.2 ± 0.18 | 2.13 ± 0.35 |  | 
38 | VTKITLESFLAWKKRKRQEKIDKL [ZC3H15] | 2.78 ± 0.81 | 2.6 ± 0.47 |  | 
39 | VTLEASRENSKPRAILKPRKVCVG [PPP2R2B] | 3.54 ± 0.23 | 3.8 ± 0.32 |  | 
40 | VTSTSQSPHSPDSSQSSLAQEEEE [DDIT3] | 5.53 ± 0.1 | 5.64 ± 0.12 |  | 
41 | VVGWFVLFYKPGIVLLLALAKYLK [GULP1] | 2.25 ± 0.41 | 2.37 ± 0.56 |  | 
42 | VVLGSGGVGKSALTVQFVQGIFVE [RAP1B] | 2.99 ± 0.05 | 2.96 ± 0.44 |  | 

Row | Sequence | protein stability index [1] | protein stability index [2] | protein stability index (treatment: DMSO, c terminus: native) | protein stability index (treatment: MLN4924 1 uM, 8 h, c terminus: native)
43 | VYLLGNPVVWWLNLLSIALYLLSG [POMT2] | 3.31 ± 0.95 | 2.96 ± 0.56 |  | 
44 | VYPRPPEPREFSSRNFGVRNQGNF [ZC2HC1C] | 3.24 ± 0.15 | 3.24 ± 0.29 |  | 
45 | WAPASEGLKPGPEDGPGKEEAPEL [SERTAD1] | 5.5 ± 0.2 | 5.46 ± 0.41 |  | 
46 | WASCLQYDFDTQYAFVGDYSGQIT [WDFY1] | 2.43 ± 0.39 | 2.2 ± 0.21 |  | 
47 | WEELLTMKVEAKSHLQWQESRLKR [ZSCAN9] | 3.65 ± 0.18 | 3.59 ± 0.37 |  | 
48 | WIRICRPGSIIGPQQHFLEEKQAS [CDC14A] | 2.18 ± 0.46 | 2.36 ± 0.48 |  | 
49 | WMEILILGVVYRSLSFEDELVYAD [ESRRG] | 3.77 ± 0.27 | 2.68 ± 0.25 |  | 
50 | WNITKLSIEYDSEPFGKERDAAIK [CRY1] | 2.9 ± 0.29 | 2.9 ± 0.28 |  | 
51 | WNQILDPWVYILLRKAVLKNLYKL [PTGFR] | 2.7 ± 1.1 | 2.03 ± 0.93 |  | 
52 | WREFHYIQSKLGIVSLLLGTIHAL [STEAP1] | 2.96 ± 0.56 | 3.15 ± 0.69 |  | 
53 | WVLLFTPCSFVCWYRPMYKAFRSD [SCAMP3] | 2.92 ± 0.31 | 3 ± 0.37 |  | 
54 | YDAYRTDLEELSLGPRDAGTRGRL [ARFIP2] | 4.1 ± 0.29 | 4.35 ± 0.15 |  | 
55 | YDDVRRCCSSADICPKCWTLMTMA [PRIM1] | 3.34 ± 0.17 | 3.4 ± 0.36 |  | 
56 | YDITKEETFSTLKNWVKELRQHGP [RAB22A] | 2.85 ± 0.49 | 3.24 ± 0.16 |  | 
57 | YFEGAPFPHPLWLRDTYKLWVPQP [PWWP2B] | 2.05 ± 0.24 | 2.18 ± 0.3 |  | 
58 | YGHCTAGGEGVEVELLHNTSYTRQ [SCNN1D] | 3.71 ± 0.22 | 3.8 ± 0.25 |  | 
59 | YGYLPEDKVLGTFEFDETSFWNSS [KLHDC2] | 2.66 ± 0.25 | 2.98 ± 0.34 |  | 
60 | YILDNETNFVVQVSVFIGVLIDLW [CLPTM1] | 2.74 ± 0.77 | 2.59 ± 0.7 |  | 
61 | YKKGIIRKPDISQRLVYQFVHPI [SPDEF] |  |  | 2.43 ± 0.48 | 2.63 ± 0.4
62 | YKPNPQIYVKLIEECTDLQKEGEF [OAS1] | 3.54 ± 0.28 | 3.53 ± 0.19 |  | 
63 | YLAFAASNVRGSLNVNLNSVVLRR [DUSP5] | 2.41 ± 0.24 | 2.69 ± 0.24 |  | 

Row | Sequence | protein stability index [1] | protein stability index [2] | protein stability index (treatment: DMSO, c terminus: native) | protein stability index (treatment: MLN4924 1 uM, 8 h, c terminus: native)
64 | YLATEYLETHFRDVSSTEEFLELS [GAN] | 3.13 ± 0.29 | 3.2 ± 0.35 |  | 
65 | YLESETETTEAIDDEGWLHSGDLG [ACSBG2] | 5.25 ± 0.14 | 5.497 ± 0.035 |  | 
66 | YLIIRTLGKLIPRHQSIFKSNGFF [CDKL4] | 2.74 ± 1.3 | 2.72 ± 1.8 |  | 
67 | YLRDSSPAPCADGPAGGLADLSSG [PWWP2B] | 4.78 ± 0.2 | 4.8 ± 0.11 |  | 
68 | YNLSPEADESVLWQLFGPFGAVTN [ELAVL3] | 2.55 ± 0.28 | 2.51 ± 0.091 |  | 
69 | YNPPKDDGSTYKIELEGISVMVMR [GAN] | 2.14 ± 0.28 | 2.24 ± 0.22 |  | 
70 | YPASTSQDSFEAAGNSTSGSRAGA [KCNA3] | 5.21 ± 0.24 | 5.2 ± 0.35 |  | 
71 | YPDAEDPQLGLDGPGEPDVRDGFS [PSD2] | 5.51 ± 0.31 | 5.46 ± 0.084 |  | 
72 | YPPFWDEDQHKLYQQIKAGAYDFP [CAMK2B] | 2.85 ± 0.35 | 3.11 ± 0.056 |  | 
73 | YQELMSLKLALDMEIATYRKLLES [KRT71] | 2.38 ± 0.32 | 2.16 ± 0.22 |  | 
74 | YQSGGRLKRPVNVPFDIFTEEVKF [KCNA4] | 2.42 ± 0.26 | 2.8 ± 0.57 |  | 
75 | YRFASAGDDGIVVVWNAQTGEKLL [WDR41] | 2.43 ± 0.17 | 2.75 ± 0.1 |  | 
76 | YSCPATNECEITKRRRKSCQACRF [ESRRG] | 3.59 ± 0.51 | 4.15 ± 0.29 |  | 
77 | YSTRYGSPKRQLQFYRNLGKSGLR [KCNAB2] | 2.59 ± 0.18 | 2.69 ± 0.19 |  | 
78 | YTVSATAPGYDPETVTVTVGPAEP [CPN1] | 3.61 ± 0.13 | 3.83 ± 0.39 |  | 
79 | YVQTVDFMRTDNTCVNLLLEASNY [KLHL13] | 2.6 ± 0.71 | 2.6 ± 0.66 |  | 
80 | YVRDRADLNKDKPVIPAAALAGYT [ETS1] | 2.44 ± 0.6 | 3.35 ± 0.78 |  | 
81 | YVRRLDFFEKPDYDYLRKLFTDLF [CSNK1G3] | 2.45 ± 0.52 | 2.06 ± 0.27 |  | 
